From patent US20060257938A1, “Method of screening for drugs that block ligand binding to a lipid binding protein” (priority 2005, published 2006)
Residue numbers refer to the chain shown, from its start. Several values for one entry are separate records, joined by “and”; a condition that tells them apart may be missing. Equal values may be shown once.

B1: 74T, 72A (protein, listed as Rattus norvegicus)
chain: AFDGTWKVDRNENYEKFMEKMGINVVKRKLGAHDNLKLTITQEGNKFTVKESSNFRNIDVVFELGVDFAYSAATGTELTGTWTMEGNKLVGKFKRVDNGKELIAVREISGNELIQTYTYEGVEAKRIFKKE
modifications: PEPTIDE (1)...(131) wild-type rat intestinal fatty acid binding protein
B2: 78H1, 72A (protein, listed as Rattus norvegicus)
chain: B1 chain with T74D, L78H
modifications: PEPTIDE (1)...(131) wild-type rat intestinal fatty acid binding protein
B3: 78F1, 72A (protein, listed as Rattus norvegicus)
chain: B1 chain with T74D, L78F
modifications: PEPTIDE (1)...(131) wild-type rat intestinal fatty acid binding protein
B4: 82M1, 72A (protein, listed as Rattus norvegicus)
chain: B1 chain with T74D, W82M
modifications: PEPTIDE (1)...(131) wild-type rat intestinal fatty acid binding protein
B5: 78M1, 72A (protein, listed as Rattus norvegicus)
chain: B1 chain with T74D, L78M
modifications: PEPTIDE (1)...(131) wild-type rat intestinal fatty acid binding protein
B6: 78W1, 72A (protein, listed as Rattus norvegicus)
chain: B1 chain with T74D, L78W
modifications: PEPTIDE (1)...(131) wild-type rat intestinal fatty acid binding protein
B7: 93M, 72A (protein, listed as Rattus norvegicus)
chain: B1 chain with T74D, F93M
modifications: PEPTIDE (1)...(131) wild-type rat intestinal fatty acid binding protein
B8: 82A1, 72A (protein, listed as Rattus norvegicus)
chain: B1 chain with T74D, W82A
modifications: PEPTIDE (1)...(131) wild-type rat intestinal fatty acid binding protein
B9: 82A, 72A (protein, listed as Rattus norvegicus)
chain: B1 chain with T74D, W82A
modifications: PEPTIDE (1)...(131) wild-type rat intestinal fatty acid binding protein
B10: 82Y2, 72A (protein, listed as Rattus norvegicus)
chain: B1 chain with T74D, W82Y
modifications: PEPTIDE (1)...(131) wild-type rat intestinal fatty acid binding protein
B11: 82V1, 72A (protein, listed as Rattus norvegicus)
chain: B1 chain with T74D, W82V
modifications: PEPTIDE (1)...(131) wild-type rat intestinal fatty acid binding protein
B12: 93L, 72A (protein, listed as Rattus norvegicus)
chain: B1 chain with T74D, F93L
modifications: PEPTIDE (1)...(131) wild-type rat intestinal fatty acid binding protein
B13: 78A3, 72A (protein, listed as Rattus norvegicus)
chain: B1 chain with T74D, L78A
modifications: PEPTIDE (1)...(131) wild-type rat intestinal fatty acid binding protein
B14: 78T1, 72A (protein, listed as Rattus norvegicus)
chain: B1 chain with T74D, L78T
modifications: PEPTIDE (1)...(131) wild-type rat intestinal fatty acid binding protein
B15: 82F1, 72A (protein, listed as Rattus norvegicus)
chain: B1 chain with T74D, W82F
modifications: PEPTIDE (1)...(131) wild-type rat intestinal fatty acid binding protein
B16: 82I3, 72A (protein, listed as Rattus norvegicus)
chain: B1 chain with T74D, W82I
modifications: PEPTIDE (1)...(131) wild-type rat intestinal fatty acid binding protein
B17: 78I1, 72A (protein, listed as Rattus norvegicus)
chain: B1 chain with T74D, L78I
modifications: PEPTIDE (1)...(131) wild-type rat intestinal fatty acid binding protein
B18: 78C2, 72A (protein, listed as Rattus norvegicus)
chain: B1 chain with T74D, L78C
modifications: PEPTIDE (1)...(131) wild-type rat intestinal fatty acid binding protein
B19: 91A, 72A (protein, listed as Rattus norvegicus)
chain: B1 chain with T74D, G91A
modifications: PEPTIDE (1)...(131) wild-type rat intestinal fatty acid binding protein
B20: 104L1, 72A (protein, listed as Rattus norvegicus)
chain: B1 chain with T74D, A104L
modifications: PEPTIDE (1)...(131) wild-type rat intestinal fatty acid binding protein
B21: 104I1, 72A (protein, listed as Rattus norvegicus)
chain: B1 chain with T74D, A104I
modifications: PEPTIDE (1)...(131) wild-type rat intestinal fatty acid binding protein
B22: 104R, 72A (protein, listed as Rattus norvegicus)
chain: B1 chain with T74D, A104R
modifications: PEPTIDE (1)...(131) wild-type rat intestinal fatty acid binding protein
B23: 104N1, 72A (protein, listed as Rattus norvegicus)
chain: B1 chain with T74D, A104N
modifications: PEPTIDE (1)...(131) wild-type rat intestinal fatty acid binding protein

Assay: Probe fluorescence ratio response to arachidonic acid relative to ADIFAB2
Type: binding
Conditions: Arachidonic acid; response relative to ADIFAB2
Summary of the method: (§1)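 Fluorescently labeled rat intestinal FABP variants were read at two emission wavelengths, near the unbound maximum (about 420 to 480 nm) and the FFA-bound maximum (about 495 to 580 nm). R = Fλ1/Fλ2 after subtracting probe-free intensity; ΔR = R+agent − R0, normalized to ADIFAB2 (rI-FABP-L72A).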

| Molecule | DR/DR AA |
| --- | --- |
| B1 | 0.76 |
| B2 | 1.23 |
| B3 | 2.04 |
| B4 | 0.97 |
| B5 | 1.39 |
| B6 | 0.49 |
| B7 | 0.93 |
| B8 | 0.73 |
| B9 | 1.55 |
| B10 | 0.65 |
| B11 | 0.86 |
| B12 | 0.36 |
| B13 | 0.48 |
| B14 | 1.07 |
| B15 | 0.68 |
| B16 | 0.67 |
| B17 | 1.27 |
| B18 | 0.15 |
| B19 | 0.86 |

Same assay, conditions: arachidonic acid; response relative to ADIFAB2

| Molecule | DR/DR AA |
| --- | --- |
| B20 | 0.38 |
| B21 | 0.28 |
| B22 | 1.18 and 1.075 |
| B23 | 1.14 |
| B12 | 0.680 |

Assay: Probe fluorescence ratio response to linolenic acid relative to ADIFAB2
Type: binding
Conditions: response relative to ADIFAB2
Summary of the method: as §1

| Molecule | DR/DR LNA |
| --- | --- |
| B1 | 0.78 |
| B2 | 1.26 |
| B20 | 0.42 |
| B3 | 2.05 |
| B4 | 0.75 |
| B21 | 0.30 |
| B5 | 1.50 |
| B22 | 0.96 and 0.904 |
| B6 | 0.53 |
| B7 | 1.19 |
| B8 | 0.66 |
| B23 | 1.06 |
| B9 | 1.56 |
| B10 | 1.57 |
| B11 | 0.76 |
| B12 | 0.81 and 0.680 |
| B13 | 0.50 |
| B14 | 1.20 |
| B15 | 0.76 |
| B16 | 0.45 |
| B17 | 1.66 |
| B18 | 0.20 |
| B19 | 0.91 |

Assay: Probe fluorescence ratio response to linoleic acid relative to ADIFAB2
Type: binding
Conditions: response relative to ADIFAB2
Summary of the method: as §1

| Molecule | DR/DR LA |
| --- | --- |
| B1 | 0.82 |
| B2 | 1.28 |
| B20 | 0.39 |
| B3 | 2.00 |
| B4 | 0.94 |
| B21 | 0.30 |
| B5 | 1.44 |
| B22 | 0.93 and 0.962 |
| B6 | 0.57 |
| B7 | 1.28 |
| B8 | 0.78 |
| B23 | 0.67 |
| B9 | 1.67 |
| B10 | 1.53 |
| B11 | 0.74 |
| B12 | 1.03 and 0.670 |
| B13 | 0.44 |
| B14 | 1.25 |
| B15 | 1.08 |
| B16 | 0.52 |
| B17 | 1.11 |
| B18 | 0.20 |
| B19 | 0.83 |

Assay: Probe fluorescence ratio response to oleic acid relative to ADIFAB2
Type: binding
Conditions: response relative to ADIFAB2
Summary of the method: as §1

| Molecule | DR/DR OA |
| --- | --- |
| B1 | 0.70 |
| B2 | 1.13 |
| B20 | 0.48 |
| B3 | 1.83 |
| B4 | 0.92 |
| B21 | 0.31 |
| B5 | 1.44 |
| B22 | 0.88 and 0.957 |
| B6 | 0.53 |
| B7 | 1.24 |
| B8 | 0.80 |
| B23 | 0.71 |
| B9 | 1.53 |
| B10 | 1.53 |
| B11 | 0.65 |
| B12 | 1.05 and 0.770 |
| B13 | 0.41 |
| B14 | 1.08 |
| B15 | 0.78 |
| B16 | 0.54 |
| B17 | 0.93 |
| B18 | 0.19 |
| B19 | 0.85 |

Assay: Probe fluorescence ratio response to palmitic acid relative to ADIFAB2
Type: binding
Conditions: response relative to ADIFAB2
Summary of the method: as §1

| Molecule | DR/DR PA |
| --- | --- |
| B1 | 0.37 |
| B2 | 0.57 |
| B20 | 0.31 |
| B3 | 0.91 |
| B4 | 0.54 |
| B21 | 0.23 |
| B5 | 0.92 |
| B22 | 0.52 and 0.791 |
| B6 | 0.29 |
| B7 | 0.75 |
| B8 | 0.26 |
| B23 | 0.52 |
| B9 | 0.84 |
| B10 | 0.88 |
| B11 | 0.48 |
| B12 | 0.62 and 0.560 |
| B13 | 0.25 |
| B14 | 0.54 |
| B15 | 0.41 |
| B16 | 0.36 |
| B17 | 0.52 |
| B18 | 0.09 |
| B19 | 0.80 |
